The target in test [1] is T1, human CD3 on cells (CD3+ Jurkat cells; purified human CD3 positive T cells) (human, UniProt P07766 23-207).
T1 construct: whole, on cells; CD3 is a multi-subunit complex
Briefly: competition flow cytometry on Jurkat cells.

The target of test [2] is T2, human EpCAM expressed on cells (CHO cells stably transfected with human EpCAM); EpCAM-positive human tumor … (human, UniProt P16422 24-314).
T2 construct: whole, on cells; also called EpCAM-CHO; hEp-CHO 4-12B
T2 sequence (looked up): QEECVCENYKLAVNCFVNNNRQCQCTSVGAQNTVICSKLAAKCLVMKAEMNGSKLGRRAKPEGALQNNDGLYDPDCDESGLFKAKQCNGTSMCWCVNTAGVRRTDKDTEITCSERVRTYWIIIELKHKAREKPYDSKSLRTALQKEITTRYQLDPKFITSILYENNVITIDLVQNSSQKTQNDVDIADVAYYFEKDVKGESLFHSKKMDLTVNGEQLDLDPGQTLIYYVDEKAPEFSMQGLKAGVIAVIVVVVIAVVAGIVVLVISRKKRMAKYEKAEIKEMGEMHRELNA
The experiment in a line: competition flow cytometry on hEp-CHO 4-12B cells.

For test [3], the target named is recombinant human CD3 epsilon & delta (rhCD3ε & δ), Creative BioMart cat #CD3E&CD3D-219H (human) (UniProt P07766). The experiment in a line: SPR.
In test [4] the target is T3, Fc-tagged EpCAM (R&D Systems, cat #960-EP-050), human, coupled to SPR chip (human, UniProt P16422 24-265).
T3 construct: Bought reagent; also called human EpCAM; EpCAM chip; not shown: Fc tag of the bought reagent
T3 sequence (looked up): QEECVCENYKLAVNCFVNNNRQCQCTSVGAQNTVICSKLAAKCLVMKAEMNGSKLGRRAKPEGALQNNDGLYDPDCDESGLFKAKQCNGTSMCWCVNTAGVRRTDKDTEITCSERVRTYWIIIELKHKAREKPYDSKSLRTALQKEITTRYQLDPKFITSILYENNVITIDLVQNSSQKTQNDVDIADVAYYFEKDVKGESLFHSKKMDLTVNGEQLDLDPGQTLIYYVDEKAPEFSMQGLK
Briefly: SPR.

Test [5] concerns the target T1, human CD3 on cells (CD3+ Jurkat cells; …). Briefly: cell-based or functional assay.
Test [6] concerns the target T2, human EpCAM expressed on cells (CHO …). Briefly: competition flow cytometry on EpCAM-CHO cells.
For test [7], the target named is T1, human CD3 on cells (CD3+ Jurkat cells; …). The experiment in a line: competition flow cytometry on CD3+ Jurkat cells.
Test [8] concerns the target T4, recombinant human EpCAM (rhEpCAM), coated on ELISA plate (human, UniProt P16422 24-265).
T4 construct: Bought reagent
T4 sequence (looked up): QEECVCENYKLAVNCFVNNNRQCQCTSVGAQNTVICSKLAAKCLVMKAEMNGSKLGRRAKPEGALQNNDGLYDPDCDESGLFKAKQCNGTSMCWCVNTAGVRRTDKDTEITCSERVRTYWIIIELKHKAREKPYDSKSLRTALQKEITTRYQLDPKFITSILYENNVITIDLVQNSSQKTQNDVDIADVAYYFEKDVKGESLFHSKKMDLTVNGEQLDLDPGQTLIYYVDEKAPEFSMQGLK
The experiment in a line: sandwich ELISA: rhEpCAM coated, biotin-conjugated protein L detection.

For test [9], the target named is T4, recombinant human EpCAM (rhEpCAM), …. The experiment in a line: sandwich ELISA: rhEpCAM coated, peroxidase-conjugated protein L detection.
Test [10] concerns the target recombinant human CD3 epsilon & delta (rhCD3ε & δ), Creative BioMart cat #CD3E&CD3D-219H (human) (UniProt P07766). The experiment in a line: sandwich ELISA: rhCD3ε & δ coated, peroxidase-conjugated protein L detection.
In test [11] the target is T5, recombinant human CEA (Abcam cat #ab742), coated on ELISA plate (human, UniProt P06731 35-685, limits assumed).
T5 construct: also called CEA antigen
T5 sequence (looked up): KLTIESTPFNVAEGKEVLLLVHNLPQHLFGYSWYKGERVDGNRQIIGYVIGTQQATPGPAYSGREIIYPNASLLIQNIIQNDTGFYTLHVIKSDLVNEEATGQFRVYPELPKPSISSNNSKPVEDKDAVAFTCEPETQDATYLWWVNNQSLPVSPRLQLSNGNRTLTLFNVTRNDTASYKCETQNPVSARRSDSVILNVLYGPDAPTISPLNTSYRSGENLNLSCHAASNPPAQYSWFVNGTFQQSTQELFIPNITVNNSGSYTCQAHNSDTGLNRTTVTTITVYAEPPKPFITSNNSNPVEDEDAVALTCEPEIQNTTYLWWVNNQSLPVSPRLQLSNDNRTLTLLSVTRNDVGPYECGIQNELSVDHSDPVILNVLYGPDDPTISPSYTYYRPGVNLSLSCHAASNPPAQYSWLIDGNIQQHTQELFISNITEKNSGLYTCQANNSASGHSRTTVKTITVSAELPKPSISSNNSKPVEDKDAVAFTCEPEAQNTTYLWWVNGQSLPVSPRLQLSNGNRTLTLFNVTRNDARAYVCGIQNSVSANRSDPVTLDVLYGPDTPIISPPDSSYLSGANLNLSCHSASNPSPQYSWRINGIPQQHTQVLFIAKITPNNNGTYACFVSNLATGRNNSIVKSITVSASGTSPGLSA
The experiment in a line: sandwich ELISA: recombinant human CEA coated, biotin-conjugated protein L detection.

Test [12] addresses T6, recombinant human HER2 (AcroBiosystems cat #HE2-H525), coated on ELISA plate (human, UniProt P04626 23-652).
T6 construct: also called HER2 antigen
The experiment in a line: sandwich ELISA: recombinant human HER2 coated, biotin-conjugated protein L detection.

The target of test [13] is recombinant human CD3 epsilon & delta (rhCD3ε & δ), Creative BioMart cat #CD3E&CD3D-219H (human) (UniProt P07766). Briefly: SPR (Biacore 3000), His-tagged CD3εδ coupled to chip, ProTIA as analyte at 5-6 concentrations.
The target in test [14] is T3, Fc-tagged EpCAM (R&D Systems, cat …). The experiment in a line: SPR (Biacore 3000), Fc-tagged EpCAM coupled to chip, ProTIA as analyte at 5-6 concentrations.

Consider 2 molecules from patent publication US12060424 (AMUNIX PHARMACEUTICALS, dated 2024).

Chain of recombinant human CD3 epsilon & delta (rhCD3ε & δ), Creative BioMart cat #CD3E&CD3D-219H (human) (P07766 23-126, stated change not applied, chain 1 of 2): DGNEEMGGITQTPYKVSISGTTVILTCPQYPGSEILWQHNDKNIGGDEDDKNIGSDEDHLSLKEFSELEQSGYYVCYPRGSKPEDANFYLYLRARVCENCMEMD
Chain of recombinant human CD3 epsilon & delta (rhCD3ε & δ), Creative BioMart cat #CD3E&CD3D-219H (human) (P04234 22-105, stated change not applied, chain 2 of 2, further chain): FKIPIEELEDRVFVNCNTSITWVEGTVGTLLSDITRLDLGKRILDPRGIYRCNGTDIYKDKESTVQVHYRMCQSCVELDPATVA
T1 sequence (P07766 23-207): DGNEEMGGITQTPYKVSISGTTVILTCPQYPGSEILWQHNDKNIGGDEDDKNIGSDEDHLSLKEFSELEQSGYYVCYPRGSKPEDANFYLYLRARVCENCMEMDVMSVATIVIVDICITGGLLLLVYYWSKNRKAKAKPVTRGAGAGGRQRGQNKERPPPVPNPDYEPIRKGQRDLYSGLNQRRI

B1: AC1886 anti-EpCAM×anti-CD3 ProTIA with two XTEN (XTEN292-RSR3058-anti-EpCAM-anti-CD3 tandem scFv-RSR3058-XTEN_867-6xHIS) (bispecific antibody)
chain: SPAGSPTSTEEGTSESATPESGPGTSTEPSEGSAPGTSESATPESGPGSEPATSGSETPGTSESATPESGPGSEPATSGSETPGTSESATPESGPGTSTEPSEGSAPGSPAGSPTSTEEGTSESATPESGPGSEPATSGSETPGTSESATPESGPGSPAGSPTSTEEGSPAGSPTSTEEGTSTEPSEGSAPGTSESATPESGPGTSESATPESGPGTSESATPESGPGSEPATSGSETPGSEPATSGSETPGSPAGSPTSTEEGTSTEPSEGSAPGTSTEPSEGSAPGGSAPTTGEAGEAAGATSAGATGPATSGSETPGTDIQMTQSPSSLSASVGDRVTITCRSTKSLLHSNGITYLYWYQQKPGKAPKLLIYQMSNLASGVPSRFSSSGSGTDFTLTISSLQPEDFATYYCAQNLEIPRTFGQGTKVEIKGATPPETGAETESPGETTGGSAESEPPGEGQVQLVQSGPGLVQPGGSVRISCAASGYTFTNYGMNWVKQAPGKGLEWMGWINTYTGESTYADSFKGRFTFSLDTSASAAYLQINSLRAEDTAVYYCARFAIKGDYWGQGTLLTVSSGGGGSDIQMTQSPSSLSASVGDRVTITCRASQDIRNYLNWYQQKPGKAPKLLIYYTSRLESGVPSRFSGSGSGTDYTLTISSLQPEDFATYYCQQGNTLPWTFGQGTKVEIKGATPPETGAETESPGETTGGSAESEPPGEGEVQLVESGGGLVQPGGSLRLSCAASGYSFTGYTMNWVRQAPGKGLEWVALINPYKGVSTYNQKFKDRFTISVDKSKNTAYLQMNSLRAEDTAVYYCARSGYYGDSDWYFDVWGQGTLVTVSSGTAEAASASGTTGEAGEAAGATSAGATGPSPGSPAGSPTSTEEGTSESATPESGPGTSTEPSEGSAPGSPAGSPTSTEEGTSTEPSEGSAPGTSTEPSEGSAPGTSESATPESGPGSEPATSGSETPGSEPATSGSETPGSPAGSPTSTEEGTSESATPESGPGTSTEPSEGSAPGTSTEPSEGSAPGSPAGSPTSTEEGTSTEPSEGSAPGTSTEPSEGSAPGTSESATPESGPGTSTEPSEGSAPGTSESATPESGPGSEPATSGSETPGTSTEPSEGSAPGTSTEPSEGSAPGTSESATPESGPGTSESATPESGPGSPAGSPTSTEEGTSESATPESGPGSEPATSGSETPGTSESATPESGPGTSTEPSEGSAPGTSTEPSEGSAPGTSTEPSEGSAPGTSTEPSEGSAPGTSTEPSEGSAPGTSTEPSEGSAPGSPAGSPTSTEEGTSTEPSEGSAPGTSESATPESGPGSEPATSGSETPGTSESATPESGPGSEPATSGSETPGTSESATPESGPGTSTEPSEGSAPGTSESATPESGPGSPAGSPTSTEEGSPAGSPTSTEEGSPAGSPTSTEEGTSESATPESGPGTSTEPSEGSAPGTSESATPESGPGSEPATSGSETPGTSESATPESGPGSEPATSGSETPGTSESATPESGPGTSTEPSEGSAPGSPAGSPTSTEEGTSESATPESGPGSEPATSGSETPGTSESATPESGPGSPAGSPTSTEEGSPAGSPTSTEEGTSTEPSEGSAPGTSESATPESGPGTSESATPESGPGTSESATPESGPGSEPATSGSETPGSEPATSGSETPGSPAGSPTSTEEGTSTEPSEGSAPGTSTEPSEGSAPGSEPATSGSETPGTSESATPESGPGTSTEPSEGSAPGHHHHHH
notes: Uncleavable release segments RSR-3058; anti-EpCAM 4D5MOCB; hCD3.3
Take B1: the “fold weaker binding affinity than cleaved AC1695” value was about 30 fold in test [1] and about 100 fold in [2].

B2: protease-treated (MMP-9 cleaved) AC1476 anti-EpCAM×anti-CD3 ProTIA (bispecific antibody)
chain: DIQMTQSPSSLSASVGDRVTITCRSTKSLLHSNGITYLYWYQQKPGKAPKLLIYQMSNLASGVPSRFSSSGSGTDFTLTISSLQPEDFATYYCAQNLEIPRTFGQGTKVEIKGATPPETGAETESPGETTGGSAESEPPGEGQVQLVQSGPGLVQPGGSVRISCAASGYTFTNYGMNWVKQAPGKGLEWMGWINTYTGESTYADSFKGRFTFSLDTSASAAYLQINSLRAEDTAVYYCARFAIKGDYWGQGTLLTVSSGGGGSDIQMTQSPSSLSASVGDRVTITCRASQDIRNYLNWYQQKPGKAPKLLIYYTSRLESGVPSRFSGSGSGTDYTLTISSLQPEDFATYYCQQGNTLPWTFGQGTKVEIKGATPPETGAETESPGETTGGSAESEPPGEGEVQLVESGGGLVQPGGSLRLSCAASGYSFTGYTMNWVRQAPGKGLEWVALINPYKGVSTYNQKFKDRFTISVDKSKNTAYLQMNSLRAEDTAVYYCARSGYYGDSDWYFDVWGQGTLVTVSSGTAEAASASGLSGRSDNHSPLG
notes: mass 58,071 Da); also called MMP-9 treated AC1476; MMP-9 treated AC1516
As to B2, the fold stronger binding affinity than untreated and non-cleavable ProTIA in test [3] was 10 fold; in test [4] it was about 10 fold; in test [6], about 10 fold; in test [7] it was about 30 fold. The “EC50, LDH release cytotoxicity, purified human CD3 positive T cells with OVCAR-3 cells 5:1” value in [5] was determined as 0.0003 nM. In addition, the “EC50, LDH release cytotoxicity, purified human CD3 positive T cells with SK-OV-3 cells 5:1” value in [5] was determined as 0.0024 nM. Besides, the EC50 in test [8] came out at 0.11 nM; in [9], 0.12 nM; in test [10] it was 0.31 nM. Moreover, the binding result in test [11] and in test [12] was “no binding” throughout. The results for the Kd in test [13] and in [14] were 2.22 nM and 1.15 nM, respectively.
